For assay [1], the target named is Canine parvovirus CPV-2c (TS02 strain), purified virus (canine parvovirus CPV-2c, TS02 strain). The assay is described as follows: indirect ELISA, purified CPV coated, serum dilution 1:1000; control of the third immunization serum. A general note: ELISA stands for enzyme-linked immunosorbent assay.
Assay [2] shares this target. Briefly: indirect ELISA, purified CPV coated, serum dilution 1:5000; control of the third immunization serum.
For assay [3] the target is unchanged. Briefly: indirect ELISA, purified CPV coated, serum dilution 1:1000; control of the fourth immunization serum.
Assay [4] shares this target. The assay is described as follows: indirect ELISA, purified CPV coated, serum dilution 1:25000; control of the third immunization serum.
Assay [5] shares this target. Briefly: indirect ELISA, purified CPV coated, serum dilution 1:5000; control of the fourth immunization serum.
Assay [6] has the same target. Briefly: indirect ELISA, purified CPV coated, serum dilution 1:25000; control of the fourth immunization serum.
Assay [7] shares this target. Briefly: indirect ELISA, purified CPV coated, serum dilution printed 1:1250000 (text: 125,000 times); control of the third immunization serum.
Assay [8] has the same target. Briefly: indirect ELISA, purified CPV coated, serum dilution printed 1:1250000 (text: 125,000 times); control of the fourth immunization serum.
The target is the same in assay [9]. Briefly: cell-based or functional assay.
The target is the same in assay [10]. Briefly: indirect ELISA, purified CPV coated, nanobody dilution 1:10, anti-His-HRP.
The target is the same in assay [11]. The assay is described as follows: indirect ELISA, purified CPV coated, nanobody dilution 1:100, anti-His-HRP.
Assay [12] shares this target. The assay is described as follows: indirect ELISA, purified CPV coated, nanobody dilution 1:1000, anti-His-HRP.
For assay [13] the target is unchanged. Briefly: indirect ELISA, purified CPV coated, nanobody dilution 1:10000, anti-His-HRP.

As for Negative serum of non-immunized alpaca, the mean OD450 nm in [1] stood at 0.158 OD450 nm; in assay [2] it was 0.071 OD450 nm; in assay [3], 0.371 OD450 nm; in assay [4], 0.048 OD450 nm; in assay [5], 0.16 OD450 nm; in assay [6], 0.083 OD450 nm. Moreover, the mean OD450 nm in [7] is 0.044 OD450 nm; in assay [8] it was 0.067 OD450 nm.

B1: CPV nanobody CPV-VHH-H1 (VHH)
VHH: QVQLVESGGGLAQPGGSLRLSCAASGAIDSISAMRWFRQPPGKQRAVVASITSDGVTTYADSVKGRFTISRDNAENTLYLQMNSLKTEDTGVYYCYAALKGYSSGVVAASWGQGTQVTVSG
In assay [9], B1 showed a neutralization titer (CPV neutralization assay, CPE on CRFK cells) (titer (1:x dilution)) of under 10. The mean OD450 nm in [10] is 2.56 OD450 nm; in assay [11] it was 2.46 OD450 nm; in assay [12], 0.28 OD450 nm; in assay [13], 0.1 OD450 nm.
